Results published in patent US20190203279A1 (NAVINCI DIAGNOSTICS, published 2019).

Molecular target: T1, β-catenin (UniProt P35222 2-781)
T1 construct: Endogenous protein in A549 cells; also called beta-catenin
T1 sequence (looked up): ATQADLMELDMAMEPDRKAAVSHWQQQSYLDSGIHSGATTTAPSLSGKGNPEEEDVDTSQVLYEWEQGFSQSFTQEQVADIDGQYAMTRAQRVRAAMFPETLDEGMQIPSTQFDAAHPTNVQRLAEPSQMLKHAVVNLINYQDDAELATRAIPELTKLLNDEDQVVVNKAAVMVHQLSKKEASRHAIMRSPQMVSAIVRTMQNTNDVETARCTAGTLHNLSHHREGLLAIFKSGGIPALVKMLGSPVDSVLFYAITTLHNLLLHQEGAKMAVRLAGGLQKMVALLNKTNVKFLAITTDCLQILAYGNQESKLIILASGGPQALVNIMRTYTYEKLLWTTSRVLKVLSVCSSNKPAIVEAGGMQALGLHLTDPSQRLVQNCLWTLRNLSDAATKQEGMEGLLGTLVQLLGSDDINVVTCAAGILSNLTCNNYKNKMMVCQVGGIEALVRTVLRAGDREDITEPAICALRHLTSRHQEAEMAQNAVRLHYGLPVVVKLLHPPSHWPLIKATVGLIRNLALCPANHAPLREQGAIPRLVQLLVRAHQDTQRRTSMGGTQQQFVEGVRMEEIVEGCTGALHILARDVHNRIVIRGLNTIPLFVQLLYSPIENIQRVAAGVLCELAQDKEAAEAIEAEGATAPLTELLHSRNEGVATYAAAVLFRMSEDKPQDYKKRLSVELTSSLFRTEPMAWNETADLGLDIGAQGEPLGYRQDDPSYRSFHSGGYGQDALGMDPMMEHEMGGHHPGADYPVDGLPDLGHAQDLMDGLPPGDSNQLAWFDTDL
Test: in situ proximity-based RCA assay on fixed A549 cells with anti-E-cadherin and anti-β-catenin primary antibodies and oligonucleotide-conjugated secondary antibodies
Protocol: A proximity-based detection assay was performed to detect a protein-protein complex in situ. Frozen A549 cells fixed on a microscopy slide were thawed and incubated with PBS+0.2% Triton X-100 for 5 minutes to permeabilise the cell membranes. Slides were incubated with 30 μl Olink blocking buffer for 60 minutes at 37° C. in a humidity chamber. Primary antibodies were diluted in Olink Antibody diluent (mouse IgG anti E-cadherin 1:100, rabbit IgG anti β-catenin 1:200). Blocking buffer was removed and 15 μl of each antibody solution was added and incubated overnight at 4° C. Slides were washed, and incubated with 30 μl 20 nM secondary antibodies conjugated to oligonucleotides (nucleic acid probe and activator molecule) for 60 minutes at 37° C. in a humidity chamber. Following incubation, slides were washed and incubated with 30 μl RCA mix (Phi29 buffer, BSA, PolyA, dNTPs, UNG, Hoechst, Texas Red labelled detection oligonucleotide and Phi29 polymerase) for 100 minutes at 37° C. in a humidity chamber. Slides were washed at room temperature and allowed to try, before being contacted with SlowFade mounting media and a coverslip applied and incubated for 15 minutes in the dark. All samples were analysed at the same magnification and exposure time (FIG. 18). […]

binding result: binds
B1: E-cadherin (other, UniProt P12830 155-882, looked up)
chain: DWVIPPISCPENEKGPFPKNLVQIKSNKDKEGKVFYSITGQGADTPPVGVFIIERETGWLKVTEPLDRERIATYTLFSHAVSSNGNAVEDPMEILITVTDQNDNKPEFTQEVFKGSVMEGALPGTSVMEVTATDADDDVNTYNAAIAYTILSQDPELPDKNMFTINRNTGVISVVTTGLDRESFPTYTLVVQAADLQGEGLSTTATAVITVTDTNDNPPIFNPTTYKGQVPENEANVVITTLKVTDADAPNTPAWEAVYTILNDDGGQFVVTTNPVNNDGILKTAKGLDFEAKQQYILHVAVTNVVPFEVSLTTSTATVTVDVLDVNEAPIFVPPEKRVEVSEDFGVGQEITSYTAQEPDTFMEQKITYRIWRDTANWLEINPDTGAISTRAELDREDFEHVKNSTYTALIIATDNGSPVATGTGTLLLILSDVNDNAPIPEPRTIFFCERNPKPQVINIIDADLPPNTSPFTAELTHGASANWTIQYNDPTQESIILKPKMALEVGDYKINLKLMDNQNKDQVTTLEVSVCDCEGAAGVCRKAQPVEAGLQIPAILGILGGILALLILILLLLLFLRRRAVVKEPLLPPEDDTRDNVYYYDEEGGGEEDQDFDLSQLHRGLDARPEVTRNDVAPTLMSVPRYLPRPANPDEIGNFIDENLKAADTDPTAPPYDSLLVFDYEGSGSEAASLSSLNSSESDKDQDYDYLNEWGNRFKKLADMYGGGEDD
notes: whole, on cells; Endogenous protein in A549 cells
